The text below walks through data of paper PMC10197177.

The test system of this series is BG4 (anti-G-quadruplex antibody). Briefly: sandwich ELISA. The following applies: K1 pre-bound to immobilized wild-type spike, ELONA: 20 mM Tris, 5 mM KCl, 2 mM MgCl2, 0.5 mM CaCl2, pH 7.4, room temperature, BG4 sandwich ELISA: Methods give 20 mM Tris, 5 mM MgCl2 …. For orientation: In an ELISA, binding on a coated surface is turned into a signal by an enzyme label.

One may read the Kd as the free concentration of one partner at which half of the binding sites on the other are occupied at equilibrium, for simple one-to-one binding. Lower therefore signals higher affinity. In turn, “AATGGATCCACATCTACGAGCTCGAACGCCCGGAGGAGACGGGGGCAGGGCGTGTTCACTGCAGACTTGACGAAGCT [K1 (truncated working aptamer)]” showed a Kd of 1.77 nM.
